Reference: patent US10428327B2, “Compositions and methods for enhancing homologous recombination” (LIFE TECHNOLOGIES CORPORATION, priority 2016, dated 2019)
Oligonucleotides are written 5' to 3', each unit as a sugar letter and its base; * is a phosphorothioate linkage, no mark a phosphodiester; rarer units and linkages stand in square brackets, end groups in braces. Plain capitals give the bases only. d = 2'-deoxy (DNA); {P} = phosphate

Columns and labels:
Assay type in all cases: cell-based
[1] = test system: HEK293 cells stably expressing eBFP; assay: HDR assay, conversion of eBFP to GFP by flow cytometry; conditions: oligonucleotide length and modification, sequential delivery, 1 nt substitution, 48 hours
Source text: To generate a HEK293FT stable cell line expressing eBFP, an eBFP ORF was synthesized by GENEART® custom DNA synthesis (Thermo Fisher Scientific) and then cloned into pDONAR221 vector. Using GATEWAY® recombination technology (Thermo Fisher Scientific), the eBFP ORF was transferred to pLenti6.2-DEST Gateway Vector and then verified by sequencing. Lentivirus was generated using VIRAPOWER® kit as described in the manual. To generate stable cell line, HEK293FT cells were transduced with 0.1 MOI of Lentivirus expressing eBFP. Three days post transduction cells were selected on 5 μg/mL Blasticidine antibiotics for 2 weeks. Cells expressing eBFP were then collected and diluted to […] in complete medium and plated into 96 well plates for single cell clone. After 2 weeks clones were isolated and verified for eBFP expression by flow cytometer. In a reporter assay using a stable eBFP-expressing HEK293 cell line, the substitution of C to T in eBFP gene converts His67 to Tyr67, generating a GFP variant (Table 5).
(§1) To create homologous recombination (HR) assays, a series of gRNAs flanking the insertion site within the EmGFP gene were designed and synthesized (Table 4). Each individual gRNA was combined with GENEART™ […]™ Cas9 Nuclease to form the Cas9 protein/gRNA ribonucleoprotein complexes (Cas9 RNPs). The Cas9 RNPs were then used to transfect cells via NEON® electroporation. The genomic cleavage efficiency was then evaluated using the GENEART® Genomic Cleavage Detection kit at 48 hours post transfection. The gRNAs with highest editing efficiencies and also in close proximity to the insertion site were selected for the subsequent HR assays. For donor design of a single-stranded oligonucleotide, typically the mutation site was positioned at the center flanked by 30 to 50 nucleotides on each side. For asymmetric donor design, 30 nucleotides were placed on either the left or right arm and then 50 or 67 nucleotides on the right or left arm respectively, in both PAM and non-PAM strands. For design of a dsDNA oligonucleotide with single-stranded overhangs, the insertion element was overlapped in the center flanked by various lengths of ssDNA oligonucleotide on each side. By annealing two single-stranded oligonucleotides at 95° C. for 3 minutes, dsDNA donor molecules with either a 5′ protrusion or a 3′ protrusion were generated. To measure homologous recombination efficiency, the donor DNA was either co-transfected with Cas9 RNPs or delivered sequentially into cells via electroporation. At 48 hours post transfection, the gain of EmGFP function in reporter cell lines was determined by flow cytometric analysis with an Attune® NxT Acoustic Focusing Cytometer (Thermo Fisher Scientific). Alternatively, the genomic loci were PCR-amplified using the corresponding primers and then subjected to GENEART® Genomic Cleavage Detection assay or restriction digestion. The resulting PCR products were also subjected to TOPO cloning. Typically, 96 colonies were randomly picked for sequencing. The sequencing data were analyzed using VECTOR NTI ADVANCE® 11.5 software (Thermo Fisher Scientific).
For each homologous recombination assay, 1.5 μg of Cas9 protein and 360 ng of gRNA were added to Resuspension Buffer R to a final volume of 7 μl, but limiting the total volume of Cas9 protein plus gRNA to less than 1 μl. The gRNA could be diluted in Buffer R if the concentration was too high. Upon mixing, the sample was incubated at room temperature for 5 to 10 minutes to form Cas9 RNPs. Meanwhile, […]™ HEK293 cells expressing either eBFP or disrupted EmGFP were detached from culture flask with TRYPLE™ Express Enzyme and then counted. Aliquots of 1×10^6 cells were washed once with DPBS without Ca^2+ and Mg^2+ and the cell pellets were resuspended in 50 μl of Resuspension Buffer R. A 5 μl aliquot of cell suspension was mixed with 7 μl of Cas9 RNPs. […] The electroporated cells were transferred to 300 μl of […]. […]

[2] = test system: EmGFP gene in GRIPTITE HEK293 cells; assay: Sequencing analysis of FLAG tag/EcoRI insertion with +5 gRNA; conditions: sequential delivery, 48 hours
Protocol: In order to understand the polarity of dsDNA donor with single stranded overhangs, we inserted a FLAG epitope tag along with an EcoRI site into a separate locus where the +5 gRNA was targeting the bottom strand of EmGFP gene (see Table 21). The Cas9 RNPs were first delivered into […]™ HEK293 cells, followed by the delivery of ssDNA donor, or short dsDNA donors with 32-base single stranded overhangs at either 5′ or 3′ end. Samples in the absence of gRNA served as controls. At 48 hours post transfection, the genomic loci were amplified by PCR. The resulting PCR fragments were subjected to restriction digestion with EcoRI (data not shown) or subjected to sequencing analysis. The integration efficiency of FLAG epitope tag along with an EcoRI was approximately 34% using dsDNA donor with 3′ overhangs and 20% using ssDNA donor.

[3] = test system: eBFP locus in HEK293 cells expressing eBFP; assay: EcoRI restriction digestion of PCR-amplified eBFP locus (FLAG tag/EcoRI insertion); conditions: FIG. 11B, length of 3′ overhang, 48 hours
Source text: FIG. 11. Insertion of a FLAG tag along with an EcoRI site using dsDNA donor with single-stranded overhangs. (A) Various donor DNA molecules containing a 30-base FLAG tag along with an EcoRI site were designed and synthesized, including single-stranded DNA donor (ssDNA), blunt-end dsDNA donor (blunt), dsDNA donor with 5′ overhang (5′), dsDNA donor with 3′ overhang (3′). The length of overhangs varied from 6 nucleotides (6), 15 nucleotides (15) to 30 nucleotides (30). The 3′ and 5′ ends of the oligonucleotides harbored two consecutive phosphorothioate-modified bases (Table 4). The short dsDNA donors with and without overhangs were prepared by annealing two short DNA oligonucleotides. […] At 48 hours post transfection, the eBFP locus was PCR-amplified. The resulting PCR fragments were analyzed by the genomic cleavage and detection assays to determine the percentage of Indel or subjected to restriction digestion with EcoRI to determine the percentage of digestion. (B) Length of 3′ overhang. […] Alternatively, a dsDNA donor with 30-base 3′ overhang but without phosphorothioate modification (30-3′n) was used. The percentage of digestion with EcoRI was determined at 48 hours post transfection. (C) Dose effect. […] The eBFP loci were PCR-amplified. The resulting PCR fragments were analyzed by EcoRI digest. (D) Sequencing verification. The PCR fragments were cloned into E. coli and 192 clones were randomly picked for sequencing. The relative percentage of wild type (wt), NHEJ, and HDR clones derived from either ssDNA donor (ssDNA) or dsDNA with 3′ overhangs (3′ overhang) was plotted. The white rectangles represented the population of clones that contained the insert but with a point mutation. Examples of edited clones were shown in (E) (not representing the actual percentages of NHEJ and HDR). The underlined sequences represented the FLAG tag along with an RI site. FIG. 11 discloses SEQ ID NOs: 15-24, respectively, from top to bottom.
as §1, with “The sequencing data were analyzed using VECTOR NTI ADVANCE® 11.5 software (Thermo Fisher Scientific).” left out

Molecule: 50: unmodified 50-mer ssDNA, BFP point mutation, SEQ ID 54 (DNA CCCACCCTCGTGACCACCCTGACCTACGGCGTGCAGTGCTTCAGCCGCTA; DNA, backbone not given here) [compound 50]
- Avg (% GFP+ cells) [1]: 14.4%

B1: 32-5′: short dsDNA donor with 32-base 5′ overhangs, EmGFP, SEQ ID 98 and 99 (nucleic acid)
chain 1: GCCCGTGCCCTGGCCCACCCTCGTGACCACCTGACTACAAAGACGATGACGACAAGAATTCTA
chain 2: GTCGGGGTAGCGGGCGAAGCACTGCACGCCGTAGAATTCTTGTCGTCATCGTCTTTGTAGTC
modifications: DNA, backbone and methylation of C not given here; further chemistry not fully specified
- Relative % HDR (integration of FLAG epitope tag along with EcoRI) [2]: 0.0%
- Relative % NHEJ [2]: 78.0%
- Relative % wt [2]: 22.0%
- Relative % HDR (integration of FLAG epitope tag along with EcoRI) ([2]; listed as dsDNA donor with 5′ overhangs): barely detectable integration product

B2: 70: unmodified 70-mer ssDNA, BFP point mutation, SEQ ID 50 (nucleic acid)
DNA: CCCGTGCCCTGGCCCACCCTCGTGACCACCCTGACCTACGGCGTGCAGTGCTTCAGCCGCTACCCCGACC
modifications: DNA, backbone not given here
- Avg (% GFP+ cells) [1]: 34.7%

B3: PS100: phosphorothioate 100-mer ssDNA, BFP point mutation, SEQ ID 45 (nucleic acid)
DNA: {P}-dA*dC*dCdGdGdCdAdAdGdCdTdGdCdCdCdGdTdGdCdCdCdTdGdGdCdCdCdAdCdCdCdTdCdTdGdAdCdCdAdCdCdCdTdGdAdCdCdTdAdCdGdGdCdGdTdGdCdAdGdTdGdCdTdTdCdAdGdCdCdGdCdTdAdCdCdCdCdGdAdCdCdAdCdAdTdGdAdAdGdCdAdGdCdAdCdGdA*dC*dT
- Avg (% GFP+ cells) [1]: 38.4%

B4: 45-3′: dsDNA donor with 45-base 3′ overhangs, annealed SEQ ID 95 and 96 (nucleic acid)
chain 1: GACTACAAAGACGATGACGACAAGAATTCTTACGGCGTGCAGTGCTTCAGCCGCTACCCCGACCACATGAAGCAGCAC
chain 2: AAGAATTCTTGTCGTCATCGTCTTTGTAGTCGGTCAGGGTGGTCACGAGGGTGGGCCAGGGCACGGGCAGCTTGCCGG
modifications: chemistry not fully specified
- Avg (% digestion) [3]: 37.0%

B5: 32-3′: short dsDNA donor with 32-base 3′ overhangs, EmGFP, SEQ ID 100 and 101 (nucleic acid)
chain 1: AGAATTCTTGTCGTCATCGTCTTTGTAGTCAGGTGGTCACGAGGGTGGGCCAGGGCACGGGC
chain 2: GACTACAAAGACGATGACGACAAGAATTCTACGGCGTGCAGTGCTTCGCCCGCTACCCCGAC
modifications: DNA, backbone and methylation of C not given here; further chemistry not fully specified
- Relative % HDR (integration of FLAG epitope tag along with EcoRI) [2]: 34.2%
- Relative % NHEJ [2]: 54.6%
- Relative % wt [2]: 11.1%
- Relative % HDR (integration of FLAG epitope tag along with EcoRI) ([2]; listed as dsDNA donor with 3′ overhangs): approximately 34%

B6: 80: unmodified 80-mer ssDNA, BFP point mutation, SEQ ID 48 (nucleic acid)
DNA: GCTGCCCGTGCCCTGGCCCACCCTCGTGACCACCCTGACCTACGGCGTGCAGTGCTTCAGCCGCTACCCCGACCACATGA
modifications: DNA, backbone not given here
- Avg (% GFP+ cells) [1]: 38.4%

B7: PS90: phosphorothioate 90-mer ssDNA, BFP point mutation, SEQ ID 47 (nucleic acid)
DNA: GCAAGCTGCCCGTGCCCTGGCCCACCCTCGTGACCACCCTGACCTACGGCGTGCAGTGCTTCAGCCGCTACCCCGACCACATGAAGCAGC
modifications: 5' phosphate, modified ends, chemistry not fully specified
- Avg (% GFP+ cells) [1]: 38.8%

B8: 90: unmodified 90-mer ssDNA, BFP point mutation, SEQ ID 46 (nucleic acid)
DNA: B7 DNA
modifications: unmodified DNA
- Avg (% GFP+ cells) [1]: 32.8%

B9: PS70: phosphorothioate 70-mer ssDNA, BFP point mutation, SEQ ID 51 (nucleic acid)
DNA: {P}-dC*dC*dCdGdTdGdCdCdCdTdGdGdCdCdCdAdCdCdCdTdCdGdTdGdAdCdCdAdCdCdCdTdGdAdCdCdTdAdCdGdGdCdGdTdGdCdAdGdTdGdCdTdTdCdAdGdCdCdGdCdTdAdCdCdCdCdGdA*dC*dC
- Avg (% GFP+ cells) [1]: 39.2%
